2 substances from PMC3085015 can be followed below.

The target of assay [1] is F14Bpa-Rop (UniProt P03051). Nature of the assay: cross-linking + SEC.
Assay [2] addresses F14Bpa-Rop (UniProt P03051). Nature of the assay: cross-linking.
In assay [3] the target is F14Bpa-Rop (UniProt P03051). Nature of the assay: cross-linking. The source holds these as a separate data set.
The target in assay [4] is F14Bpa-Rop (UniProt P03051). Nature of the assay: SEC.
The target in another assay is wild type Rop (UniProt P03051). Nature of the assay: SEC.

On to “F14Bpa-Rop (from UniProt P03051 1-63) (natural protein)”, for which the stoichiometry N with F14Bpa-Rop [1] is 4; with F14Bpa-Rop [2] it was 4; in the assay with F14Bpa-Rop [3] it was 4; with F14Bpa-Rop [4], 2.

Take “wild type Rop (from UniProt P03051 1-63) (natural protein)”: the stoichiometry N in the assay with wild type Rop was determined as 2.
